Source: paper PMC3017603
Read-outs that look alike come from different tables or passages of the source.

Key:
Nab3-RRM(419) [1] = target: T1, Nab3-RRM(419) (Saccharomyces cerevisiae, UniProt P38996 329-419); test: fluorescence anisotropy
T1 sequence: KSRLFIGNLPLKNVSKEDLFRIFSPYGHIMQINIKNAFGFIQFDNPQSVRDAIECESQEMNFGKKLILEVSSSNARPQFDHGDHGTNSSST

Nab3-RRM(419) [2] = target: T1, Nab3-RRM(419); test: fluorescence anisotropy; remark: listed apart in the source

Binder	binding result (Nab3-RRM(419) [1])	binding result (Nab3-RRM(419) [2])
UUCUUAUUCUUA (ssRNA) [FAM-wtsnR47]	binds	
UUCUUAUUUUUA (ssRNA) [FAM-snR47one]		binds
